We go through one protein from doi:10.1101/2022.08.03.502720 (bioRxiv, 2022).

The series concerns the molecule itself. Briefly: DEER.

B1: CueR_19F58_L60H_G64H mutant (natural protein, E. coli)
chain: MNISDVAKITGLTSKAIRFYEEKGLVTPPMRSENGYRTYTQQHLNELTLLRQARQVGFNHEESHELVNLFNDPQRHSADVKRRTLEKVAEIERHIEELQSMRDQLLALANACPGDDSADCPIIENLSGCCHHRAG
modifications: 19F-phenylalanine at F58; Cu(II)-NTA spin label bound at the dHis site (L60H, G64H)
Consider B1, for which the binding result is recorded as “binds”.
